The text below walks through data of article PMC314469, “Protein Interaction Networks by Proteome Peptide Scanning” (PLoS Biology, 2004).

T1: Abp1 SH3 (ABP1_YEAST), P15891
T1 chain: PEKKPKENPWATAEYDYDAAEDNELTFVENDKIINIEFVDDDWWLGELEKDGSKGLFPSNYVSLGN

B1: YML007W 309-321 (peptide)
chain: VSGTRQSPIPKKP
B2: YGL238W 669-681 (peptide)
chain: VEQSATIPESIKP
B3: YPL221W 502-514 (peptide)
chain: VAIIRYKPYLDRP
B4: YGL134W 27-40 (peptide)
chain: VDDYNASFELPLKP
B5: YMR238W 135-147 (peptide)
chain: VERNFTDPGDGKP
B6: YJL105W 434-446 (peptide)
chain: VELVTVRPLDEKP
B7: YBL017C 681-694 (peptide)
chain: VSDKTKKKTVPVKP
B8: YJR137C 1184-1197 (peptide)
chain: VEEYWGKKFEPERP
B9: YGL236C 383-395 (peptide)
chain: VEYDYVDPRQLKP
B10: YPL242C 22-35 (peptide)
chain: VENLGTNVTPPLRP
B11: YGL139W 508-520 (peptide)
chain: VAIIYYKPYLDRP
B12: YLR084C 1187-1200 (peptide)
chain: VFKDPEGDYKPIKP
B13: YER095W 331-344 (peptide)
chain: VDGGMAFNPDPKKP
B14: YGL169W 237-249 (peptide)
chain: VDGLSNPPTLLRP
B15: YBR111C 165-177 (peptide)
chain: VEVDMSLPENQKP
B16: YKL188C 543-556 (peptide)
chain: VDRDSAIFYLPQRP
B17: YGL115W 118-131 (peptide)
chain: VDQLDTASIHPSRP
B18: YGL160W 214-226 (peptide)
chain: VAFILLTPIHSRP
B19: YGR210C 280-292 (peptide)
chain: VDTFEDEPDKLKP
B20: YDL202W 178-191 (peptide)
chain: VEKINTFKTLPTKP
B21: YNL108C 86-99 (peptide)
chain: VDRGVGEWYKPDRP
B22: YML074C 275-288 (peptide)
chain: VEFKKDLEEGPTKP

The target of this experiment is T1, Abp1 SH3 (ABP1_YEAST), P15891. Briefly: SPOT array.
For the molecule B1, the normalised SPOT signal, Boehringer light units (BLU); mean over the file's lines of this peptide is 935.
In turn, B2 had a normalised SPOT signal, Boehringer light units (BLU); mean over the file's lines of this peptide of 27.7.
With B3 the figure was 156; with B4, 95.4.
Then B5, with 73.
In turn, B6 gave a normalised SPOT signal, Boehringer light units (BLU); mean over the file's lines of this peptide of 20.9.
As for B7, the normalised SPOT signal, Boehringer light units (BLU); mean over the file's lines of this peptide was determined as 171.
With B8, the normalised SPOT signal, Boehringer light units (BLU); mean over the file's lines of this peptide was 89.3.
With B9 the figure was 51.9; with B10, 64.4; with B11, 76.3.
With B12 the figure was -0; with B13, 74.7; with B14, 21.8.
In turn, B15 had a normalised SPOT signal, Boehringer light units (BLU); mean over the file's lines of this peptide of 20.2.
Then B16, with 66.1.
In turn, B17 registered a normalised SPOT signal, Boehringer light units (BLU); mean over the file's lines of this peptide of 110.
Then B18, with 48.3; and B19, with 93.9; and B20, with 385.
With B21 the figure was 172.
With B22 the figure was 82.
